In patent US20240117055A1 one finds % competition and OD (650 nm) data, which are given here for one substance.

Assay [1] has as its target Recombinant Human Axl Protein Axl-tag 5 (human) (UniProt P30530). Put plainly: competition ELISA on immobilized Axl-tag 5; unlabeled antibody 50 ug/mL; competitor Biot-v77-2a37.1 (1 ug/mL). (In general: In an ELISA, binding on a coated surface is turned into a signal by an enzyme label.)
Assay [2] shares this target. Briefly: competition ELISA on immobilized Axl-tag 5; unlabeled antibody 50 ug/mL; competitor Biot-M77-297b81.1.1 (1 ug/mL).
Assay [3] has the same target. Briefly: competition ELISA on immobilized Axl-tag 5; unlabeled antibody 50 ug/mL; competitor Biot-v77-2a37.1 (1 ug/mL), whose signal is read.
Assay [4] has the same target. Put plainly: competition ELISA on immobilized Axl-tag 5; unlabeled antibody 50 ug/mL; competitor Biot-M77-297b81.1.1 (1 ug/mL), whose signal is read.

Chain of UniProt P30530 (P30530 26-451): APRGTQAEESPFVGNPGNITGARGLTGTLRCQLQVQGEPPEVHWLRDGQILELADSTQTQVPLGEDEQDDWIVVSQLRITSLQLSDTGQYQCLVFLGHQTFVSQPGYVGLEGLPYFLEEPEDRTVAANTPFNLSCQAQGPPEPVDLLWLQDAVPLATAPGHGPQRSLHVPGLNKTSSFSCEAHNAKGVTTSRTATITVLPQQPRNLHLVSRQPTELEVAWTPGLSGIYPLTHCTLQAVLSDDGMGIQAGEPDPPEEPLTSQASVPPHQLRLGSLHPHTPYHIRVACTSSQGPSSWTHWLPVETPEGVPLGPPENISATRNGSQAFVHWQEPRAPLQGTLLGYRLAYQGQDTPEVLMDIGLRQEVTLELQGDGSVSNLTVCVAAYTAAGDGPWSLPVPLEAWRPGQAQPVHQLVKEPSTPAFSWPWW

“Cell Signaling rabbit monoclonal anti-AXL antibody AXL(C89E7)”: the % competition amounted to 3.3% in assay [1] and 1.5% in assay [2]. Moreover, the OD (650 nm) in assay [3] is 1.81 OD (650 nm); in assay [4] it was 2.13 OD (650 nm).
